The values below come from patent CN116926038A, “一种TrkA的抗原表位肽及其应用” (Guangdong HEC Pharmaceutical Co Ltd, priority 2022, dated 2023).

For assay [1], the target named is binding of Human-TrKA receptor and its ligand Human-NGF (Human-TrKA受体与其配体Human-NGF结合) (Homo sapiens, UniProt P04629). Kind of assay: ELISA blocking of Human-TrKA/Human-NGF binding by serum of peptide-immunised rabbits (Example 19). The note with it: 300 μg each time.
The target of assay [2] is T1, Human-TrKB (Homo sapiens, UniProt Q16620).
T1 construct: purchased Sino Biological 10047-H08H
As to the kind of experiment: ELISA binding of serum of peptide-immunised mice to Human-TrKB (Example 18). To be noted: serum dilutions 1:50 to 1:6400; blank serum as control. For orientation: In an ELISA, binding on a coated surface is turned into a signal by an enzyme label.

The target in assay [3] is T2, Human-TrKC (Homo sapiens, UniProt Q16288).
T2 construct: purchased Sino Biological 10048-H08H
As to the kind of experiment: ELISA binding of serum of peptide-immunised mice to Human-TrKC (Example 18). The note with it: serum dilutions 1:50 to 1:6400; blank serum as control.

Assay [4] concerns the target T3, Human-P75 (Homo sapiens, UniProt P08138).
T3 construct: purchased Sino Biological 13184-H08H
T3 sequence (P08138 29-250 limits assumed): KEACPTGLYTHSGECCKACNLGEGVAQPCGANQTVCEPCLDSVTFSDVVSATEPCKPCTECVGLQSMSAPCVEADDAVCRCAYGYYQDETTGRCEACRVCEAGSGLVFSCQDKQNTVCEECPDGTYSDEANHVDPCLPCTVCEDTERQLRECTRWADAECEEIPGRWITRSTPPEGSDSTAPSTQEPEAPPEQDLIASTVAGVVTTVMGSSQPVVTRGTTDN
As to the kind of experiment: ELISA binding of serum of peptide-immunised mice to Human-P75 (Example 18). To be noted: serum dilutions 1:50 to 1:6400; blank serum as control.

Ends that are not written are not given here.

binding of Human-TrKA receptor and its ligand Human-NGF (Human-TrKA受体与其配体Human-NGF结合), sequence (P04629 33-796): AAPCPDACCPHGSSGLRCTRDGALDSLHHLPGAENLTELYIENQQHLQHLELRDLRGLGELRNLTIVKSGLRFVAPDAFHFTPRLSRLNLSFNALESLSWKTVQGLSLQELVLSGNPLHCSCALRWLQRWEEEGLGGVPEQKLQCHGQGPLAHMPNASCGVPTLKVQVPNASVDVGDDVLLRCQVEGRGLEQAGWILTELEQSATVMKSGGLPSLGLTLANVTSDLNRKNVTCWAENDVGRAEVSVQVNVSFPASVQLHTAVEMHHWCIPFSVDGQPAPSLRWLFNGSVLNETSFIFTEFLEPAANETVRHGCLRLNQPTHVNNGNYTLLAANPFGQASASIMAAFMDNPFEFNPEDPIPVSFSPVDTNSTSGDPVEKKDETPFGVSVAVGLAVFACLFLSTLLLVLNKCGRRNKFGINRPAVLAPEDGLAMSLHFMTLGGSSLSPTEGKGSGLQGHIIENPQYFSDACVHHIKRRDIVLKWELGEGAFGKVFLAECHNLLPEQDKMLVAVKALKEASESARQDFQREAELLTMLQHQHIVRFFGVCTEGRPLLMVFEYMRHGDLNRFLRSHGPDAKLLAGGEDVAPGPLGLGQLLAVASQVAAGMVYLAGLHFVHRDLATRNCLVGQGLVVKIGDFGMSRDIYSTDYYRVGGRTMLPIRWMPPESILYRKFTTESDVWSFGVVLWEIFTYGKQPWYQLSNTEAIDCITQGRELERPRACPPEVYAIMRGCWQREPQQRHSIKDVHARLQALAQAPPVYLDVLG
T1 sequence (Q16620 32-430 limits assumed): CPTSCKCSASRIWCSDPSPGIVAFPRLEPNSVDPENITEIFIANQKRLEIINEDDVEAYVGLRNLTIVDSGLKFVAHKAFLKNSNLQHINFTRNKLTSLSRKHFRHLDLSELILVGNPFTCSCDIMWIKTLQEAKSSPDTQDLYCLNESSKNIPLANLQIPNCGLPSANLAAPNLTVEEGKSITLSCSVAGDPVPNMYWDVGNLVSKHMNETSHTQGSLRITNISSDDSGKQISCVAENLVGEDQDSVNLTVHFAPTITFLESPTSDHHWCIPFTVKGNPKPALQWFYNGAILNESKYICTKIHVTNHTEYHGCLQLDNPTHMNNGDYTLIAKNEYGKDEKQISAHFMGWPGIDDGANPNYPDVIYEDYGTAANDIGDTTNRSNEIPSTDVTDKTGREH
T2 sequence (Q16288 32-429 limits assumed): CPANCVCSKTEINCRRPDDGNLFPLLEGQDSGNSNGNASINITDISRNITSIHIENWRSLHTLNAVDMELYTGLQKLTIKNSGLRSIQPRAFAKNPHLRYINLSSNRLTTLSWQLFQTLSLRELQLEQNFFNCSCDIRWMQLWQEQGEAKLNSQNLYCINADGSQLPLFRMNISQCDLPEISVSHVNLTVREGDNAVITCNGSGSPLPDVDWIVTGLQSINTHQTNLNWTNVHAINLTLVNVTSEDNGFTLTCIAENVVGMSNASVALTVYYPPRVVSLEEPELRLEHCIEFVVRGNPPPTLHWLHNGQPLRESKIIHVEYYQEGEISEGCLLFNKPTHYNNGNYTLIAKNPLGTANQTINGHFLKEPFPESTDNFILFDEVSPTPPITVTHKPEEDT

For “MAAFMDNPFEFNPED-C-KLH: 多肽MAAFMDNPFEFNPED-C-KLH (SEQ ID NO:18; 钥孔血蓝蛋白(KLH)) (not fully specified (C-terminus); also: KLH carrier conjugated via C-terminal Cys)”, the “Human-TrkA/Human-NGF binding signal (OD450) versus blank serum” value was “显著性降低” in assay [1] (immunised rabbit serum diluted 1:2) and “显著性降低” in assay [1] (immunised rabbit serum, no dilution stated). Besides, the “binding of immunised mouse serum” value in assay [2], in assay [3] and in assay [4] was “没有明显结合” throughout.
